{"source": "patent US20210284695A1", "about": "“FOLDED AND PROTEASE-RESISTANT POLYPEPTIDES” (UNIVERSITY OF WASHINGTON, priority 2017, published 2021)", "format": "physicochemical", "protocol": "FIG. 2. Biophysical characterization of designed minimal proteins. (A) Design models and NMR solution ensembles for designed minimal proteins. (B) Far-ultraviolet circular dichroism (CD) spectra at 25° C. (black), 95° C. (red), and 25° C. following melting (blue). (C) Thermal melting curves measured by CD at 220 nm. Melting temperatures determined using the derivative of the curve. (D) Chemical denaturation in GuHCl measured by CD at 220 nm and 25° C. Unfolding free energies determined by fitting to a two-state model (red solid line).\nFar-ultraviolet CD measurements were carried out with an AVIV spectrometer, model 420. Wavelength scans were measured from 260 to 195 nm at 25 and 95° C. Temperature melts monitored dichroism signal at 220 nm in steps of 2° C./minute with 30 s of equilibration time. […] The GuHCl concentration was determined by refractive index in PBS buffer. The denaturation process monitored dichroism signal at 220 nm in steps of 0.2 M GdmCl with 1 minute mixing time for each step, at 25° C. Protein concentrations were determined by absorbance at 280 nm measured using a NanoDrop™ spectrophotometer (Thermo Scientific) using predicted extinction coefficients (65). Protein concentrations for designs lacking aromatic amino acids were measured by Qubit™ protein assay (ThermoFisher Scientific). […]"}
{"sequence": "TTVKGDIKVTFDNPEKAKKYAQKLAKIYQLTVHVHGDTIHVK [EEHEE_rd3_1049]", "values": [{"measurement": "stability of purified design (CD, in words)", "value": "very stable"}]}
